Results on twelve molecules are retold here after patent US20250101100A1 (Bristol-Myers Squibb, published 2025).

For test [1], the target named is T1, cynomolgus monkey NKG2A on cells (cynomolgus monkey, UniProt Q68VD2 1-233).
T1 construct: whole, on cells; On transfected CHO cells or on NK cells of cynomolgus PBMC / blood; also called CHO-cyno NKG2A; CHO-cynomolgus NKG2A
The test is described as follows: flow cytometry on CHO cells expressing cynomolgus NKG2A. For orientation: Flow cytometry measures light scatter and fluorescence of single cells or particles in a stream.
Method: The ability of anti-NKG2A antibodies that bound to cynomolgus NKG2A-expressing CHO cells was assessed. As depicted in FIG. 22A, 1×10⁶ cynomolgus NKG2A-expressing CHO cells were incubated with titrating amounts of anti-NKG2A antibody (10 ug/ml) 10 for 30 minutes at 4° C. […] Cells were read fresh on the BD LSRFortessa.

The target of test [2] is T2, human NKG2A on cells (human, UniProt P26715 1-233).
T2 construct: also called hNKG2A; CHO-hNKG2A
T2 sequence (P26715 whole entry): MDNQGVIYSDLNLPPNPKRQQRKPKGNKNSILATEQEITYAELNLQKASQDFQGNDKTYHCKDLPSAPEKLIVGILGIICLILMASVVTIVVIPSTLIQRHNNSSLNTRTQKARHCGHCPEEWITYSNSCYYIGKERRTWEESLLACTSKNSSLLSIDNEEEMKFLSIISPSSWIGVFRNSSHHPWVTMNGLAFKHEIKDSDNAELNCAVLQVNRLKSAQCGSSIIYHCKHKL
The test is described as follows: flow cytometry, blocking of labelled HLA-E pentamer on CHO cells expressing human NKG2A.
Method: As depicted in FIG. 20A, 1×10⁶ human NKG2A-expressing CHO cells were incubated with titrating amounts of anti-NKG2A antibody (10 ug/ml) for 30 minutes at 4° C. […] Cells were read fresh on the BD LSRFortessa.

The target of test [3] is T3, human NKG2C-CD94 heterodimer (extracellular domains) (human, UniProt Q13241 32-179).
T3 construct: extracellular domain; also called hNKG2C-heterodimer; hNKG2C-CD94
T3 sequence (chain, as listed by the source, chain 1 of 2): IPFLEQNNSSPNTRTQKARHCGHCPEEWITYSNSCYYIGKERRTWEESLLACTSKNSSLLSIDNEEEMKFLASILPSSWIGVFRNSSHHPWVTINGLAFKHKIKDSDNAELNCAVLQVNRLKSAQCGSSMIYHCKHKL
T3 sequence (Q13241 32-179, chain 2 of 2): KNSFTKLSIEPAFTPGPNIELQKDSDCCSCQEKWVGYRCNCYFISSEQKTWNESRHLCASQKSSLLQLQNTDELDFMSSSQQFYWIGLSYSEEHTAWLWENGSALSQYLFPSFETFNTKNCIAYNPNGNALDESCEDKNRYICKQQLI
The test is described as follows: SPR Biacore T200, 37 °C, antibody captured by anti-hFc on CM4 chip, heterodimer as analyte.
From the text: (§1) All data were double-referenced and fitted to a 1:1 binding model using the Biacore T200 Evaluation Software version 3.1.

Test [4] addresses T4, human NKG2A-CD94 heterodimer (extracellular domains) (human, UniProt Q13241 32-179).
T4 construct: extracellular domain; also called hNKG2A-heterodimer; hNKG2A-hCD94
Described as above.
From the text: as §1

The target in test [5] is T2, human NKG2A on cells. Nature of the test: flow cytometry on CHO cells expressing human NKG2A.
Test [6] concerns the target T2, human NKG2A on cells. Nature of the test: flow cytometry on CHO cells expressing human NKG2A, anti-human IgG-PE.
Test [7] addresses T2, human NKG2A on cells. The test is described as follows: flow cytometry, blocking of labelled HLA-E pentamer on NKL cells.
Test [8] concerns the target T2, human NKG2A on cells. The test is described as follows: flow cytometry on NKL cells (endogenous human NKG2A), anti-human IgG-PE.
Method: Cells were washed and stained with fluorescently labeled goat anti-human IgG-PE secondary antibody for 30 minutes at 4° C. to detect the bound antibody on the cell surface. Cells were read fresh on the BD LSRFortessa.
The target in test [9] is T5, cynomolgus NKG2A-CD94-mFc (cynomolgus monkey, UniProt Q68VD2 94-233).
T5 construct: also called monkey NKG2A-CD94-mFc (truncated construct); cyNKG2A-CD94; not shown: mouse Fc
T5 sequence (Q68VD2 entry or part of it): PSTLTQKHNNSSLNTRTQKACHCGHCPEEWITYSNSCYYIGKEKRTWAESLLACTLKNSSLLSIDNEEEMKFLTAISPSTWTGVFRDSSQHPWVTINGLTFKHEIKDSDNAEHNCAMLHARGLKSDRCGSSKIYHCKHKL
The test is described as follows: SPR Biacore T200, 37 °C, Fab as analyte over NKG2A-CD94-mFc immobilized on CM4 chip. A general note: SPR reads the build-up and loss of mass on a sensor chip optically.

In test [10] the target is T4, human NKG2A-CD94 heterodimer …. The test is described as follows: SPR Biacore T200, 37 °C, antibody captured by anti-human Fc on C1 chip, hNKG2A-hCD94 as analyte.
Test [11] has as its target T6, human NKG2C on CHO cells (human, UniProt P26717 1-231).
T6 construct: also called CHO-human NKG2C; hNKG2C
The test is described as follows: FACS on CHO cells engineered to express human NKG2C-CD94.

For test [12], the target named is T6, human NKG2C on CHO cells. The test is described as follows: flow cytometry, blocking of HLA-E pentamer binding to CHO cells expressing human NKG2C.
Test [13] addresses T6, human NKG2C on CHO cells. Nature of the test: flow cytometry, binding to CHO cells expressing human NKG2C, anti-human IgG-PE.
Method: As depicted in FIG. 18A, 1×10⁶ human NKG2A-expressing or human NKG2C-expressing CHO cells were incubated with titrating amounts of anti-NKG2A antibody for 30 minutes at 4° C. Cells were washed and stained with fluorescently labeled goat anti-human IgG-PE secondary antibody for 30 minutes at 4° C. to detect the bound antibody on the cell surface. Cells were read fresh on the BD LSRFortessa.
Test [14] addresses T2, human NKG2A on cells. Nature of the test: flow cytometry, blocking of HLA-E pentamer binding to CHO cells expressing human NKG2A.

Residue numbers refer to the chain shown, from its start. Numbers in names are those of the source.

T1 sequence (Q68VD2 entry or part of it): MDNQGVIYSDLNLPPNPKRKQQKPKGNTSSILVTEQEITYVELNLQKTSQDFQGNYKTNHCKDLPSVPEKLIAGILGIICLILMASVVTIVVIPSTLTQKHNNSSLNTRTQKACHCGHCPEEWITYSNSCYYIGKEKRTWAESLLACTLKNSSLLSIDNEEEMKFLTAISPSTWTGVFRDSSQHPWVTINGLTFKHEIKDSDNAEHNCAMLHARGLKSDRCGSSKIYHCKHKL
T6 sequence (P26717 other isoform, or with tags, fused parts or gaps): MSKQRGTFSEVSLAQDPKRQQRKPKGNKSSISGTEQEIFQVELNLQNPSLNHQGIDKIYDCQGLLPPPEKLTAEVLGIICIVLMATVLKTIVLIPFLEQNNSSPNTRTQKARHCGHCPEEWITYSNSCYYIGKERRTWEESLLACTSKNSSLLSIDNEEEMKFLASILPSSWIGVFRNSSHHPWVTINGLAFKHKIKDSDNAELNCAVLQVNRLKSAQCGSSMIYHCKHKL
T4 sequence (chain, as listed by the source, chain 1 of 2): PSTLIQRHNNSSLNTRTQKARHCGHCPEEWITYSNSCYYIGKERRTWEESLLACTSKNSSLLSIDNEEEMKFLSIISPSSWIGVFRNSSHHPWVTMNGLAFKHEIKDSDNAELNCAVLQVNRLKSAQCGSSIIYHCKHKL
T4 sequence (Q13241 32-179, chain 2 of 2): as the sequence (Q13241 32-179, chain 2 of 2) above

B1: NKG2A.11 antibody (antibody, human IgG1, kappa)
heavy: EVQLVESGGGLVKPGGSLRLSCAASGFTFSSHSMNWVRQAPGKGLEWVSAISSSSSYIYYADSVKGRFTISRDNAKNSLYLQMNSLRAEDTAVYYCAREEWGLPFDYWGQGTLVTVSSASTKGPSVFPLAPSSKSTSGGTAALGCLVKDYFPEPVTVSWNSGALTSGVHTFPAVLQSSGLYSLSSVVTVPSSSLGTQTYICNVNHKPSNTKVDKRVEPKSCDKTHTCPPCPAPEAEGAPSVFLFPPKPKDTLMISRTPEVTCVVVDVSHEDPEVKFNWYVDGVEVHNAKTKPREEQYNSTYRVVSVLTVLHQDWLNGKEYKCKVSNKALPAPIEKTISKAKGQPREPQVYTLPPSREEMTKNQVSLTCLVKGFYPSDIAVEWESNGQPENNYKTTPPVLDSDGSFFLYSKLTVDKSRWQQGNVFSCSVMHEALHNHYTQKSLSLSPG
light: AIQLTQSPSSLSASVGDRVTITCRASQGIPSALAWYQQKPGKAPKLLIYDASSLKSGVPSRFSGSGSGTDFTLTISSLQPEDFATYYCQQFNSYPLTFGQGTRLEIKRTVAAPSVFIFPPSDEQLKSGTASVVCLLNNFYPREAKVQWKVDNALQSGNSQESVTEQDSKDSTYSLSSTLTLSKADYEKHKVYACEVTHQGLSSPVTKSFNRGEC
notes: Human IgG1.3f, kappa; also called 13F3.A4 VH I107T, VK N30P; 13F3 VH I107T VK N30P
B1: it took 1.4 nM to reach a half-maximal effect in [1] (EC50).

B2: 2G6.C2 antibody (antibody, human IgG1, kappa, V domains shown)
VH: EVQLVESGGGLVQRGGSLRLSCAASGFTFSSNSMNWIRQAPGKGLEWVAHISSGSSFIYYADSVKGRFTISRDNAKNSLSLQMNSLRDEDTAVYYCARDDWGIDAFNIWGQGTMVTVSS
VL: EIVLTQSPATLSLSPGERATLSCRASQSVSSSLAWYQQKPGQAPRLLIYDASNRATGIPARFSGSGSGTDFTLTISSLEPEDFAVYYCQQRSNWIFTFGPGTKVDIKR
notes: Hybridoma antibody
In the case of B2, in the test with human NKG2A on cells [2], half-maximal inhibition (IC50) was put at 1.3 nM. Further, in test [3], the “Half-life of Antibody/Analyte Complex” value is 23 s; the Kd (commonly the concentration at which binding is half-saturated) was 1100 nM; the koff (usually the rate constant with which the complex falls apart) is 0.03 s⁻¹; the kon (in general, the second-order rate constant of association) is 28000 M⁻¹ s⁻¹. In [4], the “Half-life of Antibody/Analyte Complex” value was determined as 19 s, the Kd worked out at 91 nM, the koff came to 0.036 s⁻¹ and the kon was 400000 M⁻¹ s⁻¹. Moreover, in [1], it took 0.6 nM to reach a half-maximal effect (EC50). Also, the response in the test with human NKG2A on cells [5] was half-maximal at 1 nM (EC50).

B3: 1G5.B2 antibody (antibody, human IgG1, kappa, V domains shown)
VH: QVQLVESGGGVVQPGRSLRLSCAASGFTFSDYAMHWVRQTPGRGLEWLTFISYDGSNKYHADSVKGRFTISRDNSKNTLFLQMNSLRAEDTAVYYCARDSWDRGYFDLWGRGTLVTVSS
VL: EIVLTQSPATLSLSPGERATLSCRASQSVSSYLAWYQQKPGQAPRLLIYDASNRATGIPARFSGSGSGTDFTLTISSLEPEDFAVYYCQQRSNWWTFGQGTKVEIKR
notes: Hybridoma antibody; printed as IG5.B2 in two paragraphs; also called IG5.B2
Consider B3, for which the EC50 – broadly, the concentration at which the effect is half-maximal – with human NKG2A on cells [6] amounted to 0.6 nM; with human NKG2A on cells [8], 0.3 nM. In addition, the figures for the IC50 with human NKG2A on cells [2] and with human NKG2A on cells [7] were 0.7 nM and 0.4 nM, respectively.

B4: NKG2A.9 Fab (Fab, V domains shown)
VH: EVQLVESGGGLVKPGGSLRLSCAASGFTFSSHSMNWVRQAPGKGLEWVSAISSSSSYIYYADSVKGRFTISRDNAKNSLYLQMNSLRAEDTAVYYCAREEWGLPFDYWGQGTLVTVSS
VL: AIQLTQSPSSLSASVGDRVTITCRASQGISSALAWYQQKPGKAPKLLIYDASSLKSGVPSRFSGSGSGTDFTLTISSLQPEDFATYYCQQFNSYPLTFGQGTRLEIK
notes: Fab of NKG2A.9
Consider B4, for which, in test [9], the “KD ratio (cy/h)” value is approximately 26 and binding was characterised by a dissociation constant (Kd) of 1600 nM.

B5: monalizumab (antibody, V domains shown)
VH: QVQLVQSGAEVKKPGASVKVSCKASGYTFTSYWMNWVRQAPGQGLEWMGRIDPYDSETHYAQKLQGRVTMTTDTSTSTAYMELRSLRSDDTAVYYCARGGYDFDVGTLYWFFDVWGQGTTVTVSS
VL: DIQMTQSPSSLSASVGDRVTITCRASENIYSYLAWYQQKPGKAPKLLIYNAKTLAEGVPSRFSGSGSGTDFTLTISSLQPEDFATYYCQHHYGTPRTFGGGTKVEIKR
As for B5, in [10], the “Half-life of Antibody/Analyte Complex” value fell in the range of 3 to 4 s, the Kd came out at 26 nM, the koff worked out at 0.2 s⁻¹ and the kon was 7e+06 M⁻¹ s⁻¹.

B6: P1-069366 antibody (antibody, V domains shown)
VH: QVQLVESGGGVVQPGRSLRLSCAASGFTFSSYAMHWVRQAPGKGLEWVAVISYDGSYKEYADSVKGRFTISRDSSKNTLYLQMNSLRAEDTAVYYCARAQISEYFDYWGQGTLVTVSS
VL: DIQMTQSPSSLSASVGDRVTITCRASQGISSWLAWYQQKPEKAPKSLIYAASSLQSGVPSRFSGSGSGTDFTLTISSLQPEDFATYYCQQYNSYPLTFGQGTKVEIKR
notes: From the immune antibody library (yeast display); also called P10069366
On to B6, for which the binding result with human NKG2C on CHO cells [11] is “no binding”.

B7: 11H9.A1 antibody (antibody, human IgG1, kappa, V domains shown)
VH: EVQLVESGGGLVKPGGSLRLSCAASGFTFSSYSMNWVRQAPGKGLEWVSSISSSSSYIYYADSVKGRFTISRDNAKNSLYLQMNSLRAEDTAVYYCARLLWFGEIFDYWGQGTLVTVSS
VL: AIQLTQSPSSLSASVGDRVTITCRASQGISSALAWYQQKPGKAPKLLIYDASSLKSGVPSRFSGSGSGTDFTLTISSLQPEDFATYYCQQFNSYPITFGQGTRLEIKR
notes: Hybridoma antibody; also called 11H9.A4
In the case of B7, the IC50 (as a rule, the concentration that inhibits the measured activity by half) is 54 nM in the test with human NKG2C on CHO cells [12], 0.1 nM in the test with human NKG2A on cells [7] and 1 nM in the test with human NKG2A on cells [14]. The EC50 with human NKG2A on cells [6] came out at 0.7 nM; with human NKG2A on cells [8], 0.1 nM; with human NKG2C on CHO cells [13], 9 nM.

B8: NKG2A.5 antibody (antibody, V domains shown)
VH: B7 VH
VL: B4 VL with L96I
notes: also called recombinant 11H9.A4
B8 returned an EC50 with human NKG2A on cells [6] of 0.3 nM. This molecule also showed an IC50 with human NKG2A on cells [2] of 0.3 nM.

B9: NKG2A.14 antibody (antibody, human IgG1, kappa, V domains shown)
VH: B4 VH with T112I
VL: B7 VL with S30Q, I96L
notes: IgG1.3f; also called 13F3.A4 VK-N30Q
B9 had an EC50 in the test with human NKG2A on cells [6] of 0.1 nM. The molecule further displayed an IC50 with human NKG2A on cells [2] of 0.2 nM.

B10: NKG2A.10 antibody (antibody, IgG1, V domains shown)
VH: B4 VH
VL: B7 VL with S30Q, I96L
notes: IgG1.3f; also called 13F3.A4 VH-I107T, VK-N30Q
On to B10, for which the EC50 was 0.1 nM with human NKG2A on cells [6] and 1.3 nM in test [1]. This molecule also returned an IC50 in the test with human NKG2A on cells [2] of 0.05 nM.

B11: NKG2A.12 antibody (antibody, human IgG1, kappa, V domains shown)
VH: B4 VH
VL: B7 VL with S30N, I96L
notes: IgG1.3f; also called 13F3.A4 VH-I107T
For B11, the EC50 in the test with human NKG2A on cells [6] stood at 0.2 nM; in test [1], 1.2 nM. This molecule showed an IC50 with human NKG2A on cells [2] of 0.1 nM.

B12: NKG2A.15 antibody (antibody, human IgG1, kappa)
heavy: EVQLVESGGGLVKPGGSLRLSCAASGFTFSSHSMNWVRQAPGKGLEWVSAISSSSSYIYYADSVKGRFTISRDNAKNSLYLQMNSLRAEDTAVYYCAREEWGLPFDYWGQGILVTVSSASTKGPSVFPLAPSSKSTSGGTAALGCLVKDYFPEPVTVSWNSGALTSGVHTFPAVLQSSGLYSLSSVVTVPSSSLGTQTYICNVNHKPSNTKVDKRVEPKSCDKTHTCPPCPAPEAEGAPSVFLFPPKPKDTLMISRTPEVTCVVVDVSHEDPEVKFNWYVDGVEVHNAKTKPREEQYNSTYRVVSVLTVLHQDWLNGKEYKCKVSNKALPAPIEKTISKAKGQPREPQVYTLPPSREEMTKNQVSLTCLVKGFYPSDIAVEWESNGQPENNYKTTPPVLDSDGSFFLYSKLTVDKSRWQQGNVFSCSVMHEALHNHYTQKSLSLSPGK
light: B1 light
notes: IgG1.3f; also called 13F3.A4 VK-N30P
In the test with human NKG2A on cells [6], B12 registered an EC50 of 0.1 nM. Half-maximal inhibition with human NKG2A on cells [2] (IC50) was put at 0.1 nM.
